Key:
[1] = substrate: O=[N+]([O-])c1ccccc1O[C@@H]1O[C@H](CO)[C@H](O)[C@H](O)[C@H]1O; assay: o-nitrophenol release, A420; type: biochemical, Bifidobacterium breve; details: 0.1 M sodium acetate pH 6.5, 40 °C, unit mM, not in table
Description: o-nitrophenol release, A420 on BgaB

[2] = substrate: O=[N+]([O-])c1ccccc1O[C@@H]1O[C@H](CO)[C@H](O)[C@H](O)[C@H]1O; assay: o-nitrophenol release, A420; type: biochemical, Bifidobacterium breve; details: 0.1 M sodium acetate pH 6.5, 40 °C, unit mM, not in table; remark: listed apart in the source
Description: o-nitrophenol release, A420 on BgaA

Protein	Km [1] [mM]	Km [2] [mM]
BgaB (Bifidobacterium breve UCC2003) (protein, His6-tagged, expressed in Lactococcus lactis (pNZ8150), Ni-purified; trimer) MEHREFKWPQPLAGGKPRIWYGGDYNPDQWPEEVWDEDVALMQKAGVNLVSVAIFSWAKLEPEEGVYDFDWLDRVIDKLGKAGIAVDLASGTASPPMWMTQAHPEILWVDYRGDVCQPGARQHWRATSPVFLDYALNLCRKMAEHYKDNPYVVSWHVSNEYGCHNRFDYSEDAERAFQKWCEKKYGTIDAVNDAWGTAFWAQRMNNFSEIIPPRFIGDGNFMNPGKLLDWKRFSSDALLDFYKAERDALLEIAPKPQTTNFMVSAGGAGIDYDKWGYDVDFVSNDHYFTPGEAHFDELAYSASLCDGIARKNPWFLMEHSSSAVNWRPINYRVEPGELVRDSLAHLAMGADAICYFQWRQSKAGAEKWHSSMVPHAGPDSQIFRDVCELGADLNKLADEGLLSTKLVKSKVAVVFDYESQWATEHTATPTQEVRHWTEPLAWFRALADNGLTADVVPVRGPWDEYEAVVLPSLTILSEETTRRVREYVANGGKLFVTYYTGLVDDKDHVWLGGYPGSIRDVVGVRVEEFAPMGNDFPGAMDHLDLDNGTVAHDFADVITSVADTAHVVASFKADKWTGFDGAPAITINDFGDGKAAYVGARLGREGLAKSLPALLEELGIETSAEDDRGEVLRVERADETGENHFVFLFNRTHDVAIVDVDGEPLVASLAQVNESEHTAAIQPNGVLVVKL	8.607	–
BgaA (Bifidobacterium breve UCC2003) (protein, His6-tagged, expressed in Lactococcus lactis (pNZ8150), Ni-purified; dimer) MTNLQSAQQFSQAWLTDPRVFAVNRLAAHSSHKFYDHAPQCGEAMDLKQSLDGQWRVQMVDLADLADNELAEAAFAQPGYDAAGFSPIEVPSALETKGFLNHQYVNQQYPWSGHESPVAPDVPKHNHVALYRHEFSLEPKAAAVLEANKTAADDAAKRRVTLIFQGAATAIVVWLNGAFIGYAEDSFTPSEFDVTDVLRDGVNTLAVACFEFSSASWLEDQDFWRLHGIFRSVELEAQPLVHVNDLRVLADYDHTTGEGSLDVVALVRNAGTAAAVAATVLDAAGNTVWHSKLTAGADAETLTVKANVGKVNPWSAEEPTLYTLQVVATDAAGQVIEAALQRIGFRHFAIEDGLMKLNGKRIVFKGVDRHEFDARTGRTIAEADMIEDIHSFKRLNINAVRTSHYPNETRWYELCDEYGIYVLDETNLETHGSWTDPGDVFQPARAIPGSKDEWRAACVDRTASMVRRDYNHPSVVIWSLGNEAFGGDVFYSMRDFVHENDPFRPVHYEGTFNDPEFSAATDIMSRMYAKPDEIVKLYLGEDGKKPYISCEYSHSMGNSTGGLHLYTELERYPLYQGGFIWDYVDQALWQDCGDGTERLAYGGDFEDRPNDYEFSGDGVMFADRTPSPKAQEVKQLYANVKLVPDESGVTITNDNLFISTASSLFTARVLVDGVECWHANYRFDVPAGETVREPIAFPKVTDLVALSGSAEVTYEVDQRLAEATDWAPAGYELTFGQYVAAVSFDDGAADAVVAGDAEVAADGFNAGIHTDFGEVLLSKTQGGMVSFKRDGREMVIRRPNLTTFRALTDNDRGNGSGFERAQWMAAGRYARVTGTSVEETADGKGLKATYSYELADAKHTPVTVHYEVDAALRVHLTVKYPGEADAATLPAFGLEWILPKQYDRLRFYGLGPEETYADRLHGAKLGVFSRTAAEDCAPYLLPQETGNHEQVRWAEITDEYGHGMRVTAAGGTRFATSLLPYSSLMLEDALHQNELPKPRHTFLRLLAAQMGVGGDDTWGAPVHDEFQVPADQPLKLDVTLELI	–	10.8

Reference: publication PMC8126724, “Infant-Associated Bifidobacterial β-Galactosidases and Their Ability to Synthesize Galacto-Oligosaccharides” (Frontiers in Microbiology, 2021)
